Data reported in PMC4364296 (Molecular microbiology, 2014).
Changes are numbered by the printed parent chain. Like-named read-outs stand apart in the source and are kept apart here.

T1: FtsZ-L178E (E. coli, UniProt P0A9A6 1-383, L178E)
T1 sequence (looked up): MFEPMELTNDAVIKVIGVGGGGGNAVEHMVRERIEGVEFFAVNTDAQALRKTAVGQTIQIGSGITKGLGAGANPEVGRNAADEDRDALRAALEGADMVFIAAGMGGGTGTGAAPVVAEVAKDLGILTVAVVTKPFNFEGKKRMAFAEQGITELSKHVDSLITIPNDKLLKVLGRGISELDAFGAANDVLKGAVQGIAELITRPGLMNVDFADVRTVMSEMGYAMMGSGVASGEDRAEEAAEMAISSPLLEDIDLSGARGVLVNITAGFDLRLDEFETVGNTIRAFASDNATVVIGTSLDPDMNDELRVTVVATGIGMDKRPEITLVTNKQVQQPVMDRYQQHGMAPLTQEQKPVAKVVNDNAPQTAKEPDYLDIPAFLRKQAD

T2: His-FtsZ (E. coli, UniProt P0A9A6 1-383)
T2 sequence (looked up): T1 sequence (looked up) with E178L

B1: MinDΔ10-linker-CCTP (other, E. coli, UniProt P0AEZ3 1-260, looked up)
chain: MARIIVVTSGKGGVGKTTSSAAIATGLAQKGKKTVVIDFDIGLRNLDLIMGCERRVVYDFVNVIQGDATLNQALIKDKRTENLYILPASQTRDKDALTREGVAKVLDDLKAMDFEFIVCDSPAGIETGALMALYFADEAIITTNPEVSSVRDSDRILGILASKSRRAENGEEPIKEHLLLTRYNPGRVSRGDMLSMEDVLEILRIKLVGVIPEDQSVLRASNQGEPVILDINADAGKAYADTVERLLGEERPFRFIEEEKPEITLVTNKQVQQPVMDRYQQHGMAPLTQEQKPVAKVVNDNAPQTAKEPDYLDIPAFLRKQAD
B2: FtsZ-360 (domain or fragment, E. coli, UniProt P0A9A6 1-360, looked up)
chain: MFEPMELTNDAVIKVIGVGGGGGNAVEHMVRERIEGVEFFAVNTDAQALRKTAVGQTIQIGSGITKGLGAGANPEVGRNAADEDRDALRAALEGADMVFIAAGMGGGTGTGAAPVVAEVAKDLGILTVAVVTKPFNFEGKKRMAFAEQGITELSKHVDSLITIPNDKLLKVLGRGISLLDAFGAANDVLKGAVQGIAELITRPGLMNVDFADVRTVMSEMGYAMMGSGVASGEDRAEEAAEMAISSPLLEDIDLSGARGVLVNITAGFDLRLDEFETVGNTIRAFASDNATVVIGTSLDPDMNDELRVTVVATGIGMDKRPEITLVTNKQVQQPVMDRYQQHGMAPLTQEQKPVAKVVND
B3: MalE-CCTP (domain or fragment, E. coli, UniProt P0A9A6 367-383, looked up)
chain: KEPDYLDIPAFLRKQAD
B4: FtsZ-WT (natural protein, E. coli, UniProt P0A9A6 1-383, looked up)
chain: T1 sequence (looked up) with E178L
B5: His-ZipA^185–328 (domain or fragment)
chain: not shown
B6: His-SlmA/SBS (natural protein, E. coli, UniProt P0C093 1-198, looked up)
chain: MAEKQTAKRNRREEILQSLALMLESSDGSQRITTAKLAASVGVSEAALYRHFPSKTRMFDSLIEFIEDSLITRINLILKDEKDTTARLRLIVLLLLGFGERNPGLTRILTGHALMFEQDRLQGRINQLFERIEAQLRQVLREKRMREGEGYTTDETLLASQILAFCEGMLSRFVRSEFKYRPTDDFDARWPLIAAQLQ
B7: ZipA^185–328 (untagged) (domain or fragment)
chain: not shown
B8: CCTP (14 amino acids) (peptide, UniProt P0A9A6 370-383, looked up)
peptide: DYLDIPAFLRKQAD

Experiments:
His-ZipA^185–328 [1] = target: B5; experiment: BLI
His-ZipA^185–328 [2] = target: B5; experiment: BLI; remark: listed apart in the source
[3] = target: the molecule itself; experiment: sedimentation of polymers + electron microscopy
His-ZipA^185–328 [4] = target: B5; experiment: BLI; remark: listed apart in the source
FtsZ-L178E = target: T1, FtsZ-L178E; experiment: BLI
FtsZ-WT [5] = target: B4; experiment: BLI
FtsZ-WT [6] = target: B4; experiment: BLI; remark: listed apart in the source
FtsZ-WT [7] = target: B4; experiment: BLI; remark: listed apart in the source
His-FtsZ = target: T2, His-FtsZ; experiment: BLI

Binder: B1
Kd (His-ZipA^185–328 [1]): 1.4 ± 0.2 µM | Kd (His-ZipA^185–328 [2]): 11.7 ± 5.2 µM

Binder: B2
binding result [3]: binds

Binder: B3
Kd (His-ZipA^185–328 [4]): 30.8 ± 4.7 µM

Binder: B4
binding result [3]: binds

Binder: B5
Kd (FtsZ-L178E): 5.3 ± 0.7 µM | Kd (FtsZ-WT [5]): 0.42 ± 0.1 µM | Kd (FtsZ-WT [6]): 0.77 ± 0.1 µM

Binder: B6
binding result (FtsZ-WT [7]): binds

Binder: B7
Kd (His-FtsZ): 8.1 ± 1.3 µM

Binder: B8
Kd (His-ZipA^185–328 [4]): 140 ± 22 µM
